This note sets out measurements from paper PMC4222533 (Biochemistry, 2014).

Broadly, the Kd is the concentration at which binding is half-saturated.

The target in the assay is integrin αIIb cytoplasmic tail peptide (starting from W988). Briefly: ITC. For orientation: Isothermal titration calorimetry measures the heat released or taken up as one component is titrated into another.

B1: skelemin tandem IgC2 domains 4 and 5 with the interconnecting linker, C1354S (domain or fragment)
chain: DEEEMKRLLALSQEHKFPTVPTKSELAVEILEKGQVRFWMQAEKLSSNAKVSYIFNEKEIFEGPKYKMHIDRNTGIIEMFMEKLQDEDEGTYTFQIQDGKATGHSTLVLIGDVYKKLQKEAEFQRQEWIRKQGPHFAEYLSWEVTGESNVLLKCKVANIKKETHIVWYKDEREISVDEKHDFKDGICTLLITEFSKKDAGFYEVILKDDRGKDKSRLKLVD
modifications: uniformly 15N or 15N/13C labelled for NMR
B1 came in with a Kd of 14.2 ± 4.3 µM.
